Source: US20070036781A1

Key:
[1] = target: T1, short form of human CCRL2 (CRAM-B) (human) (UniProt O00421); test: cell-based or functional assay
T1 sequence: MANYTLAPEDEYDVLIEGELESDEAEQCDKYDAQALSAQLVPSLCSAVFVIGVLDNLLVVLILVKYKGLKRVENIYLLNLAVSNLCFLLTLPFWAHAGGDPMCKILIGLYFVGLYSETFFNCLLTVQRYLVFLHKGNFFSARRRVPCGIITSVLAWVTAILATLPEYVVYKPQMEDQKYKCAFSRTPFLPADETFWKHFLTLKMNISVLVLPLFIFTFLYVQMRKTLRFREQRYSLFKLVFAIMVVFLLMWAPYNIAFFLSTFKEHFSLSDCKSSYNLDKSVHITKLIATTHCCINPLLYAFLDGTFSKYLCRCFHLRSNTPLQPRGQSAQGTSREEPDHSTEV

[2] = target: Corticotropin Releasing Factor Receptor (CRFR), CRF-R1 (UniProt P34998); test: cell-based or functional assay
Chain of UniProt P34998 (P34998 24-415 limits assumed): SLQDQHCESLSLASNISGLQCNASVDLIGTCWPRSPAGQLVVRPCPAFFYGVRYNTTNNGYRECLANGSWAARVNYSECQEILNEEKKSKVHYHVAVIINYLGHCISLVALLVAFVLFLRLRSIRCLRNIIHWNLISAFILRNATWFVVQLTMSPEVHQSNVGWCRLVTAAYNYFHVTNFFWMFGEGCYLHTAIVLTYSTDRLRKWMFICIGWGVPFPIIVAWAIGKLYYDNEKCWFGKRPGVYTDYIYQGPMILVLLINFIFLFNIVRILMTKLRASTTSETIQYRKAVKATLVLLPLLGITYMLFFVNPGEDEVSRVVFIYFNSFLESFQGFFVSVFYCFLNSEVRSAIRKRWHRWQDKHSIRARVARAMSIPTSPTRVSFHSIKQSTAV

Molecule “Monocyte chemotactic protein-3 (MCP-3) (from UniProt P80098 24-99) (ligand)” has a LacZ activity, Gi2-transplant yeast, 10^-6 M ligand [1] of 2.2 LacZ units and a chemotaxis of CCRL2 transfected cells, 10 nM chemokine; more cells passing across the membrane than untreated cells [1] of 35%.

In the case of “Monocyte chemotactic protein-1 (MCP-1) (from UniProt P13500 24-99) (ligand)”, the LacZ activity, Gq-transplant yeast, 10^-6 M ligand [1] is reported as 5.7 LacZ units.

Work on DNPSLSIDLTFHLLRTLLELARTQSQRERAEQNRIIFDSV (peptide, UniProt P55089 83-122, looked up) [Urocortin] yielded a LacZ activity, Gq-transplant yeast, 10^-6 M ligand [2] of 6.9 LacZ units.

Work on SEEPPISLDLTFHLLREVLEMARAEQLAQQAHSNRKLMEII (peptide, UniProt P06850 154-194, looked up) [Corticotrophin releasing factor (CRF)] yielded a LacZ activity, Gi2-transplant yeast, 10^-6 M ligand [2] of 6.4 LacZ units and a LacZ activity, Gi3-transplant yeast, 10^-6 M ligand [2] of 17.2 LacZ units.

B1: macrophage inflammatory protein-4 (MIP-4) (ligand)
chain: AQVGTNKELCCLVYTSWQIPQKFIVDYSETSPQCPKPGVILLTKRGRQICADPNKKWVQKYISDLKLNA
For B1, the LacZ activity, Gi3-transplant yeast, 10^-6 M ligand [1] was 6.5 LacZ units and the chemotaxis of CCRL2 transfected cells, 10 nM chemokine; more cells passing across the membrane than untreated cells [1] was 35%.
